{
  "source": "patent US9273099",
  "about": "(Dana-Farber, dated 2016)",
  "molecules": {"B1": {"name": "FITC-labeled unmodified BID BH3 peptide (peptide, UniProt P55957 80-101, looked up)", "peptide": "{FITC-βAla}-EDIIRNIARHLAQVGDSMDRSI", "notes": "domain: BH3; also called FITC-BID BH3; FITC-labeled BID BH3 peptide"}},
  "key": {"[1]": {"target": "C-terminal deleted GST-BCL-2 (UniProt P10415)", "experiment": "fluorescence polarization competitive binding, FITC-BID BH3 as competitor"}, "[2]": {"target": "C-terminal deleted GST-BCL-2 (UniProt P10415)", "experiment": "direct fluorescence polarization, 25 nM fluoresceinated peptide with GST-BCL2 25-1000 nM"}, "[3]": {"target": "C-terminal deleted GST-BCL-2 (UniProt P10415)", "experiment": "direct fluorescence polarization"}, "[4]": {"target": "C-terminal deleted GST-BCL-2 (UniProt P10415)", "experiment": "fluorescence polarization, displacement of prebound FITC-BID BH3 from BCL-2"}, "[5]": {"target": "C-terminal deleted GST-BCL-2 (UniProt P10415)", "experiment": "fluorescence polarization binding"}, "[6]": {"target": "C-terminal deleted GST-BCL-2 (UniProt P10415)", "experiment": "fluorescence polarization, displacement of FITC-BID BH3 from BCL-2"}, "[7]": {"target": "T1, Full-length BAX protein (UniProt Q07812 1-192, limits assumed)", "T1 construct": "mature", "T1 sequence (Q07812 whole entry)": "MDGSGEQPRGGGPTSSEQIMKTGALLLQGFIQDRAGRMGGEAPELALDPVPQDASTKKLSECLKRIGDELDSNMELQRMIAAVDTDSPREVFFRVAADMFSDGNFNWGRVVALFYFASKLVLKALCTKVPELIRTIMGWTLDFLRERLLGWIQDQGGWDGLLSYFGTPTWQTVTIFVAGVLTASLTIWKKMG", "experiment": "BAX fluorescence polarization direct binding assay"}, "[8]": {"target": "C-terminal deleted GST-BCL-2 (UniProt P10415)", "experiment": "fluorescence polarization direct binding"}},
  "note": "Where no end group is shown, it is not given here. The star is where a group is joined. FITC = O=C1OC2(c3ccc(O)cc3Oc3cc(O)ccc32)c2ccc(NC(=S)*)cc21; βAla = NCCC(=O)O",
  "data": [
    {"molecule": "SAHB3BID(tr)B (16-mer) (peptide)", "values": [
      {"measurement": "fold drop against the 23-mer SAHB3BIDB", "setting": "[1]", "result": "> 6", "unit": "fold"}
    ]},
    {"molecule": "FITC-SAHB3BID(G→E)A (peptide)", "values": [
      {"measurement": "Kd", "setting": "[2]", "result": 483, "unit": "nM"}
    ]},
    {"molecule": "FITC-SAHB3BIDA (peptide)", "values": [
      {"measurement": "fold enhancement in binding affinity against unmodified BID BH3", "setting": "[3]", "result": "> 6", "unit": "fold"},
      {"measurement": "fold enhancement in binding affinity against unmodified BID BH3 peptide", "setting": "[3]", "result": 6, "unit": "fold"},
      {"measurement": "Kd", "setting": "[2]", "result": 38.8, "unit": "nM"}
    ]},
    {"molecule": "BAD BH3 domain peptide (from UniProt Q92934 103-127)", "values": [
      {"measurement": "IC50", "setting": "[4]", "result": 173, "unit": "nM"},
      {"measurement": "Kd", "setting": "[5]", "result": 41, "unit": "nM"}
    ]},
    {"molecule": "SAHB3BIDA (unlabeled) (peptide)", "values": [
      {"measurement": "IC50", "setting": "[6]", "result": 62, "unit": "nM"},
      {"measurement": "fold increase in displacement potency against unmodified BID BH3 peptide", "setting": "[6]", "result": "> 13", "unit": "fold"}
    ]},
    {"molecule": "B1", "values": [
      {"measurement": "binding result", "setting": "[7]", "result": "no binding"},
      {"measurement": "Kd", "setting": "[8]", "result": 220, "unit": "nM"}
    ]}
  ]
}
